Results on two molecules are retold here after patent US20240166745A1 (Eli Lilly, published 2024).

Experiment [1] has as its target T1, Cynomolgus PD-1-ECD (cynomolgus, UniProt B0LAJ3 25-170).
T1 construct: commercial protein; also called cynomolgus PD-1-ECD (Sino Biologicals, Cat #90311-C08H); not shown: C-terminal polyhistidine tag of the vendor product (Sino Biological 90311-C08H)
Kind of experiment: SPR (Biacore T200), antibody captured on PrismA chip, ECD as analyte, 25° C. As for the experimental part:
(§1) A Biacore® T200 (Cytiva, Marlborough, MA) was used to measure the binding kinetics and affinities of the LAG-3 antibody to the LAG-3 soluble extracellular domain (ECD) and the bispecific antibody to soluble LAG-3-ECD and PD-1-ECD (human: Sino Biologicals, Cat #10377-H08H; cynomolgus: Sino Biologicals, Cat #90311-C08H) by surface plasmon resonance. Samples were diluted in HBS-EP+ (10 mM Hepes, 150 mM NaCl, 3 mM EDTA, 0.05% Tween-20, pH 7.6) (Teknova Cat #H8022) with 5 g/L of BSA (Jackson ImmunoResearch Cat #001-000-161) running buffer. PrismA Series S Sensor chip (Cat #29650263) is purchased from Cytiva.
(§2) Binding was evaluated using multi-cycle kinetics by an antibody capture method. Each cycle was performed at either 37° C. or 25° C. at a flow rate of 10 μL/min for antibody capture to the PrismA chip and 100 μL/min for analyte association (with 120 sec contact time) and dissociation (900 sec). Each cycle consisted of the following steps: injection of bispecific antibody at 1 μg/mL in HBS-EP+ targeting Rmax values of 125 RU (LAG-3 arm), 294 RU (PD-1 arm) and 63 RU (LAG-3 antibody) on flow cell, injection of analyte in HBS-EP+(concentration range of 62.5 nM to 0.25 nM by two-fold serial dilution for both human PD-1-ECD-His (SEQ ID NO: 40) and human LAG-3-His (SEQ ID NO: 42) followed by 900-second dissociation phase, and regeneration using 10 μL of 10 mM glycine hydrochloride, pH 1.5 over a 60-second contact time utilizing a 10 μL/min flow rate. All analyte concentrations were determined utilizing monomeric molecular weight (MW) values. Association rates (kₒₙ) and dissociation rates (koff) for LAG-3-ECD and PD-1-ECD were evaluated using double referencing by flow-cell one reference subtraction in addition to 0 nM blank subtraction and fit to “1:1 (Langmuir) binding” model in the BIAevaluation software version 4.1. The dissociation constant (KD) was calculated from the binding kinetics according to the relationship KD=Koff/Kₒₙ. Stoichiometry=[RUₘₐₓ/RUcaptured]/[MWanalyte/MWantibody] where MWAntibodyA is 150 kDa. Values are reported as mean±standard deviation.
For orientation: In SPR one partner is held on a chip, and binding of the other changes the refractive index at the surface.

Experiment [2] deals with T2, Human LAG-3 ECD-His (human, UniProt P18627 23-449).
T2 construct: Soluble analyte in SPR; the entry includes linker and His tag; also called human LAG-3-His
T2 sequence: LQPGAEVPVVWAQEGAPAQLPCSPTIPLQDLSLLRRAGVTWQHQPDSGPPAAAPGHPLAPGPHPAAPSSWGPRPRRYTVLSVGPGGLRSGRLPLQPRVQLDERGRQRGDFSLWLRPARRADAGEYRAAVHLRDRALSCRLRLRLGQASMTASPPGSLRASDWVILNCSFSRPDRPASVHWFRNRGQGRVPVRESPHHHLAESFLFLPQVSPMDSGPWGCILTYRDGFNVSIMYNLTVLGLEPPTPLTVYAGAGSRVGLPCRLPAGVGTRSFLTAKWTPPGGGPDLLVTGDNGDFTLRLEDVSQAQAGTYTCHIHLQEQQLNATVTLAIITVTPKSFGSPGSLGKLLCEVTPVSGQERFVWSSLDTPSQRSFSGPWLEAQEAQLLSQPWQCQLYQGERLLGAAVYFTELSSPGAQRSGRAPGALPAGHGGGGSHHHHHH
Described as above. On the procedure: as §1, §2

In experiment [3] the target is T3, Human PD-1 ECD-His (human, UniProt Q15116 25-167).
T3 construct: Soluble analyte in SPR; the entry includes the His tag
T3 sequence (Q15116 other isoform, or with tags, fused parts or gaps): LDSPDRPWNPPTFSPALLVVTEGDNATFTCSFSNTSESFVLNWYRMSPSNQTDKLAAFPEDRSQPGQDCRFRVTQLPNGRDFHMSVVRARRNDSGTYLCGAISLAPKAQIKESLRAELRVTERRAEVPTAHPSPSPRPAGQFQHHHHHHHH
Briefly: SPR (Biacore T200), antibody captured on PrismA chip, ECD as analyte, 25° C.; 25° C. On the procedure:
as §1
(§3) Binding was evaluated using multi-cycle kinetics by an antibody capture method. […] Each cycle consisted of the following steps: injection of bispecific antibody at 1 μg/mL in HBS-EP+ targeting Rmax values of 125 RU (LAG-3 arm), 294 RU (PD-1 arm) and 63 RU (LAG-3 antibody) on flow cell, injection of analyte in HBS-EP+(concentration range of 62.5 nM to 0.25 nM by two-fold serial dilution for both human PD-1-ECD-His (SEQ ID NO: 40) and human LAG-3-His (SEQ ID NO: 42) followed by 900-second dissociation phase, and regeneration using 10 μL of 10 mM glycine hydrochloride, pH 1.5 over a 60-second contact time utilizing a 10 μL/min flow rate. All analyte concentrations were determined utilizing monomeric molecular weight (MW) values. […]

The target of experiment [4] is T1, Cynomolgus PD-1-ECD. Briefly: SPR (Biacore T200), antibody captured on PrismA chip, ECD as analyte, 37° C. On the procedure:
as §1, §2

Experiment [5] addresses T3, Human PD-1 ECD-His. The description is as above. On the procedure: as §1, §2
Experiment [6] deals with T2, Human LAG-3 ECD-His. Briefly: SPR (Biacore T200), antibody captured on PrismA chip, ECD as analyte, 37° C., steady-state equilibrium model (SS); 37° C., steady-state equilibrium model.
Experiment [7] has as its target T2, Human LAG-3 ECD-His. Briefly: SPR (Biacore T200), antibody captured on PrismA chip, ECD as analyte, 37° C. On the procedure: as §1, §2
Experiment [8] has as its target T3, Human PD-1 ECD-His. Briefly: SPR (Biacore T200), antibody captured on PrismA chip, ECD as analyte; temperature unclear: the 37° C. label is printed only at r14, by the order of Table 3a probably 37° C.; 37° C. (label printed late, at r14). On the procedure: as §1, §3
Experiment [9] deals with T1, Cynomolgus PD-1-ECD. Kind of experiment: SPR (Biacore T200), antibody captured on PrismA chip, ECD as analyte; temperature unclear: the 37° C. label is printed only at r14, by the order of Table 3a probably 37° C. As for the experimental part: as §1, §2
Experiment [10] addresses T3, Human PD-1 ECD-His. Described as above. On the procedure: as §1, §2

T1 sequence (B0LAJ3 entry or part of it limits assumed): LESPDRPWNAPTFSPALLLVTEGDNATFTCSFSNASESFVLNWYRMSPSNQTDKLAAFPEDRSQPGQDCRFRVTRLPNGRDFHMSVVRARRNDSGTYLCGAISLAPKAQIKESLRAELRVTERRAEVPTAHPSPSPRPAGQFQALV

B1: Antibody A (bispecific antibody, human IgG1, kappa, lambda)
heavy 1: not shown
light 1: DIVMTQTPLSLPVTPGEPASISCRSSQSLLDSAEGSTYLDWFLRKPGDSPQLLIYTLSYRASGVPDRFSGSGSGTDFTLKISRVEAEDVGVYYCMQRVEFPYTFGQGTKVEIKRTVAAPSVFIFPPSKEQLKSGTASVVCLLNNFYPREAKVQWKVDNALQSGNSQESVTEQDSKDSTYSLSSTLTLSKADYEKHKVYACEVTHQGLSSPVTKSFNRGEC
heavy 2: QVQLVQSGAEVKKPGASVKVSCKVSGYSLSKYDMSWVRKAPGKGLEWMGIIYTSGYTDYAQEFQGRVTMTEDTSTDTAYMELSSLRSEDTAVYYCATGNPYYTNGFNSWGQGTLVTVSSASTKGPSVFPLAPSSKSTSGGTAALGCLVKDYFPEPVTVSWNSGALTSGVATGPAVLQSSGLYSLSSVVTVPSSSLGTQTYICNVNHKPSNTKVDKRVEPKSCDKTHTCPPCPAPELLGGPSVFLFPPKPKDTLMISRTPEVTCVVVDVSHEDPEVKFNWYVDGVEVHNAKTKPREEQYNSTYRVVSVLTVLHQDWLNGKEYKCKVSNKALPAPIEKTISKAKGQPREPQVYTLPPSREEMTDNQVSLTCLVKGFYPSDIAVEWESNGQPENNYKTTPPVLMSDGSFFLASKLTVDKSRWQQGNVFSCSVMHEALHNHYTQKSLSLSPGK
light 2: RIQMTQSPSSLSASVGDRVTITCQASQSPNNLLAWYQDKPGKAPKLLIYGASDLPSGVPSRFSGSGSGTDFTLTISSLQPEDFATYYCQNNYYVGPVSYAFGGGTKVEIKGQPKAAPSVTLFPPSSEELQANKATLVCYISDFYPGAVTVAWKADSSPVKAGVETTTPSKQSNNKYAAWSYLSLTPEQWKSHRSYSCQVTHEGSTVEKTVAPTEC
notes: IgG-like bispecific with one LAG-3 arm and one PD-1 arm; also called human LAG-3/human PD-1 dual agonist bispecific antibody
Regarding B1, the Kd (commonly the free concentration of one partner at which half of the binding sites on the other are occupied at equilibrium, for simple one-to-one binding) was 1.6 nM in the experiment with Cynomolgus PD-1-ECD [1]; 0.55 nM with Human LAG-3 ECD-His [2]; 3.5 nM with Cynomolgus PD-1-ECD [4]; 0.66 nM with Human PD-1 ECD-His [5]; 5.7 nM with Human LAG-3 ECD-His [6]. Besides, the koff (usually the rate constant with which the complex falls apart) with Cynomolgus PD-1-ECD [1] is 0.002 s⁻¹; with Human LAG-3 ECD-His [2] it was 0.019 s⁻¹; in the experiment with Cynomolgus PD-1-ECD [4] it was 0.0087 s⁻¹; with Human PD-1 ECD-His [5] it was 0.0017 s⁻¹. Also, the kon (usually a measure of how fast the partners come together) in the experiment with Cynomolgus PD-1-ECD [1] stood at 1.3e+06 M⁻¹ s⁻¹; in the experiment with Human LAG-3 ECD-His [2], 3.4e+07 M⁻¹ s⁻¹; with Human PD-1 ECD-His [3] it was 750000 M⁻¹ s⁻¹; with Cynomolgus PD-1-ECD [4] it was 2.5e+06 M⁻¹ s⁻¹; with Human PD-1 ECD-His [5] it was 2.5e+06 M⁻¹ s⁻¹.

B2: Antibody B (bispecific antibody, human IgG1, kappa, lambda)
heavy 1: not shown
light 1: DIVMTQTPLSLPVTPGEPASISCRSSQSLLDSAEGSTYLDWFLRKPGDSPQLLIYTLSYRASGVPDRFSGSGSGTDFTLKISRVEAEDVGVYYCMQRVEFPYTFGQGTKVEIKRTVAAPSVFIFPPSKEQLKSGTASVVCLLNNFYPREAKVQWKVDNALQSGNSQESVTEQDSKDSTYSLSSTLTLSKADYEKHKVYACEVTHQGLSSPVTKSFNRGEC
heavy 2: QVQLVQSGAEVKKPGASVKVSCKVSGYSLSKYDMSWVRKAPGKGLEWMGIIYTSGYTDYAQEFQGRVTMTEDTSTDTAYMELSSLRSEDTAVYYCATGNPYYTNGFNSWGQGTLVTVSSASTKGPSVFPLAPSSKSTSGGTAALGCLVKDYFPEPVTVSWNSGALTSGVATGPAVLQSSGLYSLSSVVTVPSSSLGTQTYICNVNHKPSNTKVDKRVEPKSCDKTHTCPPCPAPELLGGPSVFLFPPKPKDTLMISRTPEVTCVVVDVSHEDPEVKFNWYVDGVEVHNAKTKPREEQYNSTYRVVSVLTVLHQDWLNGKEYKCAVSNKALPAPIEKTISKAKGQPREPQVYTLPPSREEMTDNQVSLTCLVKGFYPSDIAVEWESNGQPENNYKTTPPVLMSDGSFFLASKLTVDKSRWQQGNVFSCSVMHEALHNHYTQKSLSLSPGK
light 2: RIQMTQSPSSLSASVGDRVTITCQASQSPNNLLAWYQDKPGKAPKLLIYGASDLPSGVPSRFSGSGSGTDFTLTISSLQPEDFATYYCQNNYYVGPVSYAFGGGTKVEIKGQPKAAPSVTLFPPSSEELQANKATLVCYISDFYPGAVTVAWKADSSPVKAGVETTTPSKQSNNKYAAWSYLSLTPEQWKSHRSYSCQVTHEGSTVEKTVAPTEC
notes: also called human LAG-3/human PD-1 dual agonist bispecific antibody
For the molecule B2, the Kd in the experiment with Cynomolgus PD-1-ECD [1] was 1.1 nM; with Human LAG-3 ECD-His [2], 0.53 nM; with Human LAG-3 ECD-His [7], 6.1 nM; with Cynomolgus PD-1-ECD [9] it was 3.1 nM; with Human PD-1 ECD-His [10], 0.65 nM. Moreover, the koff is 0.0018 s⁻¹ with Cynomolgus PD-1-ECD [1]; 0.023 s⁻¹ with Human LAG-3 ECD-His [2]; 0.34 s⁻¹ with Human LAG-3 ECD-His [7]; 0.0088 s⁻¹ with Cynomolgus PD-1-ECD [9]; 0.0015 s⁻¹ in the experiment with Human PD-1 ECD-His [10]. Also, the kon in the experiment with Cynomolgus PD-1-ECD [1] is 1.7e+06 M⁻¹ s⁻¹; with Human LAG-3 ECD-His [2], 4.3e+07 M⁻¹ s⁻¹; in the experiment with Human LAG-3 ECD-His [7], 5.5e+07 M⁻¹ s⁻¹; in the experiment with Human PD-1 ECD-His [8], 2.4e+06 M⁻¹ s⁻¹; with Cynomolgus PD-1-ECD [9], 2.8e+06 M⁻¹ s⁻¹.
